Measurements: patent US20230365703A1 (SHANGHAI LYN CREST ENTERPRISE MANAGEMENT, published 2023)

Experiments:
[1] = biological target: T1, IL12 receptors on H_IL12 Reporter 293 cells (UniProt P42701 24-662; Q99665 24-862, limits assumed); assay: cell-based or functional assay
[2] = biological target: T1, IL12 receptors on H_IL12 Reporter 293 …; assay: cell-based or functional assay; remark: listed apart in the source
[3] = biological target: T2, GPC3 on liver cancer cells (HepG2, HuH-7) (UniProt P51654 25-554); assay: flow cytometry on HepG2 cells, Alexa Fluor 488 anti-human IgG; table under the plot prints no unit, unit taken from the axis Con.(nM)
T2 construct: whole, on cells; also called GPC3 antigen

[4] = biological target: CD47 on CD47-transfected CHO-K1 cells (Homo sapiens (Human), UniProt Q08722 19-323); assay: flow cytometry on CD47-transfected CHO-K1 cells (CD38-/CD47+), anti-human IgG-FITC detection

T1 sequence (Q99665 24-862 limits assumed, chain 2 of 2, other chains not shown): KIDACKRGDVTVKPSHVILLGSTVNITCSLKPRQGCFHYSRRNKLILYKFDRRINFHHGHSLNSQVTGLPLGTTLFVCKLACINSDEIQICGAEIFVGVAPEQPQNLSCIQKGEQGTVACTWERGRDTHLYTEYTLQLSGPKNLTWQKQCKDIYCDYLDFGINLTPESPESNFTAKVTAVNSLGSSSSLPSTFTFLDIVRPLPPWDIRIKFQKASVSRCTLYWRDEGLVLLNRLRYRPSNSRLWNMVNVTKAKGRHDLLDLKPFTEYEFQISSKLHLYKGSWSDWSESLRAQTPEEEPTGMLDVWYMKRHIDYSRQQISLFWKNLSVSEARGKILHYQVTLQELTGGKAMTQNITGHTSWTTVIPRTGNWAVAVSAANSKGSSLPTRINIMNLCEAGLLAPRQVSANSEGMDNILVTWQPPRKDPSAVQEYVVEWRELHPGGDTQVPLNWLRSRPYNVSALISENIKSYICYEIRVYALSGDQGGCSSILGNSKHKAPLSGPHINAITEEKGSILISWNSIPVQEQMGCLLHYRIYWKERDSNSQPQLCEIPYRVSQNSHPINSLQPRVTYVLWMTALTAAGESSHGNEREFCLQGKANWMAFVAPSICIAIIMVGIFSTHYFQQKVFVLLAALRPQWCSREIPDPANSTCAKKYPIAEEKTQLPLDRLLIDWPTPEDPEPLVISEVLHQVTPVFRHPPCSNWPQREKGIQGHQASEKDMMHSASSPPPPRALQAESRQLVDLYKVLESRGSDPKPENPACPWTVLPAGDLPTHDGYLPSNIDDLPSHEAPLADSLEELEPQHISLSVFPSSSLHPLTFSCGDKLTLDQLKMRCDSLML

B1: LCB-018 (bispecific antibody)
heavy: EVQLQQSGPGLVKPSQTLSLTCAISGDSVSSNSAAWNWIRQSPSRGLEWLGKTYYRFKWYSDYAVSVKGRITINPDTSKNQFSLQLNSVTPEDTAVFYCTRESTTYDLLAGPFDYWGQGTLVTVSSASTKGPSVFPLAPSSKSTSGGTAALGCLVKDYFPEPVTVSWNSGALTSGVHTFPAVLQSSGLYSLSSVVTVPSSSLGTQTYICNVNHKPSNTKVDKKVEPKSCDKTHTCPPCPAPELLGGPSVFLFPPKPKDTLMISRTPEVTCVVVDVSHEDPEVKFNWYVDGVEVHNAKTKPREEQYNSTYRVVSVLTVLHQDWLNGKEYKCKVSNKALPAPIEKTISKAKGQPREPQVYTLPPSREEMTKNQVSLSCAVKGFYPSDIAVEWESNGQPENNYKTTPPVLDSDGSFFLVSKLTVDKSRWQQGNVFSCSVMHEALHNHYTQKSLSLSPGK
chain 1: not shown
chain 2: WELKKDVYVVELDWYPDAPGEMVVLTCDTPEEDGITWTLDQSSEVLGSGKTLTIQVKEFGDAGQYTCHKGGEVLSHSLLLLHKKEDGIWSTDILKDQKEPKNKTFLRCEAKNYSGRFTCWWLTTISTDLTFSVKSSRGSSDPQGVTCGAATLSAERVRGDNKEYEYSVECQEDSACPAAEESLPIEVMVDAVHKLKYENYTSSFFIRDIIKPDPPKNLQLKPLKNSRQVEVSWEYPDTWSTPHSYFSLTFCVQVQGKSKREKKDRVFTDKTSATVICRKNASISVRAQDRYYSSSWSEWASVPCS
With B1 as the binder, how does the “EC50 on H_IL12 Reporter 293 cells (One-Glo signal; called binding affinity by the filing)” value [1] read?
The value was 30 nM.

And the “fold weaker than the IL12A and IL12B complex on H_IL12 Reporter 293 cells” value [1]?
The value was roughly 500 times.

And the “EC50 (read off the curve), H_IL12 Reporter 293 cells, One-Glo signal, LCB-018 with IL12B after isotype pre-incubation (TIGIT free)” value [2]?
The value was roughly 4 nM.

What about the “EC50 (read off the curve), H_IL12 Reporter 293 cells, One-Glo signal, LCB-018 with IL12B after pre-block of TIGIT with 200 nM Tiragolumab” value [2] of the same binder?
The value was roughly 10 nM.

B2: Anti-GPC3 monoclonal antibody codrituzumab (antibody, human IgG1, kappa, V domains shown)
VH: QVQLVQSGAEVKKPGASVKVSCKASGYTFTDYEMHWVRQAPGQGLEWMGALDPKTGDTAYSQKFKGRVTLTADKSTSTAYMELSSLTSEDTAVYYCTRFYSYTYWGQGTLVTVSS
VL: DVVMTQSPLSLPVTPGEPASISCRSSQSLVHSNRNTYLHWYLQKPGQSPQLLIYKVSNRFSGVPDRFSGSGSGTDFTLKISRVEAEDVGVYYCSQNTHVPPTFGQGTKLEIKR
notes: also called GC33; anti-GPC3 mAb
Which EC50 [3] does the source give for B2 here?
The EC50 was 0.529 nM.

B3: Anti-CD38 monoclonal antibody Felzartamab (antibody, human IgG1, lambda, V domains shown)
VH: QVQLVESGGGLVQPGGSLRLSCAASGFTFSSYYMNWVRQAPGKGLEWVSGISGDPSNTYYADSVKGRFTISRDNSKNTLYLQMNSLRAEDTAVYYCARDLPLVYTGFAYWGQGTLVTVSS
VL: DIELTQPPSVSVAPGQTARISCSGDNLRHYYVYWYQQKPGQAPVLVIYGDSKRPSGIPERFSGSNSGNTATLTISGTQAEDEADYYCQTYTGGASLVFGGGTKLTVLG
Does B3 bind [4]?
Result: no binding
